The data set can be described thus: yeast display, Sf9 membrane polyspecificity reagent, FACS + sequencing; frameworks hold sequencing errors. An outline of the steps:
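Sorting gates, low and high (top ~1%), were placed on anti-HA fluorescence to track expression and on streptavidin fluorescence to track reagent binding. A clone's polyreactivity label is taken from the gate it came out of. The reagent was 10% biotinylated, detergent-solubilized Sf9 membrane, applied for 1 hour at 4 °C to galactose-induced yeast display cells.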
In the case of “QVQLVESGGGLVQAGGSLRLSCAASGGTFLNYAMGWYRQAPGKECELVAVITNGDSTYYADSVKGRFTISRDNAKNTVYLQMNSLKPEDTAVYYCNADDWGQYNIWYDYWGQGTQVTVSS”, the “polyreactivity (PSR sort gate)” value is “low polyreactivity”.
As for “QVQLVESGGGLVQAGGSLRLSCAASGGTFLRNAMGWYRQAPGKERELVAAISARGGSTRYADSVKGRFTISRDNAKNTVYLQMNSLKPEDTAVYYCDATSSHHRRMEYWGQGTQVTVSS”, the entry is “high polyreactivity”; as for “QVQLVESGGGLVQAGGSLRLSCAASGGTFLYNAMGWYRQAPGKERELVAAISRSGGRTDYADSVKGRFTISRDNAKNTVYLQMNSLKPEDTAVYYCATPGTYYTHRYRYDYWGHGTQVTVSS”, “high polyreactivity”; as for “QVQLVESGGGLVQAGGSLRLSCAASGGTFNTYAMGWYRPAPGKERELVAAITSSGGSTFYADSVKWRFTISRDNAKNTVYLQMNSLKPEDTAVYYCAAKSYWTIVYRHPGYYYWGQGTQVTVSS”, “low polyreactivity”.
Turning to “QVQLVESGGGLVQAGGSLRLSCAASGGTFPGYTMGWYRQAPGKERELVAAISRGGRTYYADSVKGRFTISRDNAKNTVYLQMNSLKPEDTAVYYCNAVTKYGNFDYWGQGTQVTVSS”, the “polyreactivity (PSR sort gate)” value was “high polyreactivity”.
The result for “QVQLVESGGGLVQAGGSLRLSCAASGGTFPWYSMGWYRPATGKEREMVAGITWGGVSTYADSVKGRFTISRDNAKNTVYLQMNSLKQEDTAVYYCASRTSFTRGPWYKFYYWGQGTQVTVSS” reads “high polyreactivity”; that for “QVQLVESGGGLVQAGGSLRLSCAASGGTFQAYAMGWYRQAPGKERELVAAISRSGGRTYYADSVKGRFTISRDNAKNTVYLQMNSLKPEDTAVYYCNAGAYYRNEMDYWGQGTQVTVSS”, “high polyreactivity”; that for “QVQLVESGGGLVQAGGSLRLSCAASGGTFQINAMGWYRQAPGKERELVAAISRSGGSTSYADSVKGRFTISRDNAKNTVYLQMNSLKPEDTAVYYCNKRVRATAWYDYWGQGTQVTVSS”, “high polyreactivity”.
The result for “QVQLVESGGGLVQAGGSLRLSCAASGGTFQPNAMGWYRQAPGKERELVAAISWSDGSTYYADSVKGRFTISRDNAKNTVYLQMNSLKPEDTAVYYCAADFTYYDSPYRDYNYESWGQGTQVTVSS” reads “low polyreactivity”.
On to “QVQLVESGGGLVQAGGSLRLSCAASGGTFRAYVMGWYRQAPGKERELVAAISRSGTRTYYADSVKGRFTISRDNAKNTVYLQMNSLKPEDTAVYYCAAAAKSWLFDYWGQGTQVTVSS”, for which the “polyreactivity (PSR sort gate)” value was “high polyreactivity”.
Take “QVQLVESGGGLVQAGGSLRLSCAASGGTFRLYAMGWYRQAPGKERELVAAITGSSGGTYYADSVKGRFTISRDNAKNTVYLQMNSLKPEDTAVYYCAARSSYWGQGTQVTVSS”: the “polyreactivity (PSR sort gate)” value is given as “low polyreactivity”.
For the sequence “QVQLVESGGGLVQAGGSLRLSCAASGGTFRPYAMGWYRQAPGKERELVATIRSSGGRTYYADSVKGRFTISRDNAKNTVYLQMISLKPEDTAVYSCAADRTRGYGNDYWGQGTQVTVSS”, the “polyreactivity (PSR sort gate)” value was “high polyreactivity”.
As for “QVQLVESGGGLVQAGGSLRLSCAASGGTFRRYTMGWYRPAPGKERELVAVISRSGGSTYYADSVKGRFTISRDIAKNTVYLQMNSLKPEDTAVYYCAVVYYNGYDWGQGTQVTVSS”, the “polyreactivity (PSR sort gate)” value was “high polyreactivity”.
Consider “QVQLVESGGGLVQAGGSLRLSCAASGGTFRSNAMGWYRQAPGKERELVAASTNYADSVKGRFTISRDNAKNTVYLQMNSLKPEDTAVYYCAAGPTDSQSGMDYWGQGTQVTVSS”, for which the “polyreactivity (PSR sort gate)” value was “low polyreactivity”.
On to “QVQLVESGGGLVQAGGSLRLSCAASGGTFRVYVMGWYRQAPGKERELVAAISRGGGSTYYADSVKGRFTISRDNAKNTVYLQMNSLKPEDTAVYYCAARVWRYPWRASEYDYWGQGTQVTVSS”, for which the “polyreactivity (PSR sort gate)” value is “high polyreactivity”.
As for “QVQLVESGGGLVQAGGSLRLSCAASGGTFRYNAMGWYRQAPGKERELVAAISRSGGSTHYADSVKGRFTISRDNAKNTVYLQMNSLKPEDTAVYYCAATVTFVPSRAGFYKYNYWGQGTQVTVSS”, the entry is “high polyreactivity”; as for “QVQLVESGGGLVQAGGSLRLSCAASGGTFRYYAMGWYRQAPGKERELVAAITSGDTTNYADSVKGRFTISRDNAKNTVYLQMNSLKPEDTAVYYCAKELQVRQAGDYWGQGTQVTVSS”, “low polyreactivity”.
On to “QVQLVESGGGLVQAGGSLRLSCAASGGTFSGYTMGWYRQAPGKEWELVAAITRSGSSTYYADSVKGRFTISRDNAKNTVYLQMNSLKPEDTAVYYGAATYGSGVYKYDYWGQGTQVTVSS”, for which the “polyreactivity (PSR sort gate)” value is listed as “high polyreactivity”.
The result for “QVQLVESGGGLVQAGGSLRLSCAASGGTFSKYAMGWYRQAPGKEREFVAAITVSGGGTYYADSVKGRFTISRDNAKYTVYLQMNSLKPEDTAVYDCAADLAWTASDYWGQVTQVTVSS” reads “low polyreactivity”; that for “QVQLVESGGGLVQAGGSLRLSCAASGGTFSLNAMGWYRQAPGKEREFVAGITWGGGRTYYADSVKGRFTISRDNAKNTVYLQMNSLKPEDTAVYYCAAGAWRGPYSGYYYWGQGTQVTVSS”, “low polyreactivity”.
For the sequence “QVQLVESGGGLVQAGGSLRLSCAASGGTFSLYAMGWYRQAPGKEREFVAAISWRGTSTYYADSVKGRFTISRDNAKNTVYLQMNSLKPEDTAVYYCAARAWHEYGSWGQGTQVTVSS”, the “polyreactivity (PSR sort gate)” value is reported as “high polyreactivity”.
In the case of “QVQLVESGGGLVQAGGSLRLSCAASGGTFSPYAMGWYRQAPGKERELVAAIRYSGDRTYYADSVKGRFTISRDNAKNTVYLQMNSLKPEDTAVYYCAGPYYNTGYRYGYWGQGTQVTVSS”, the “polyreactivity (PSR sort gate)” value is reported as “high polyreactivity”.
As for “QVQLVESGGGLVQAGGSLRLSCAASGGTFSPYYMGWYRQAPGKEREFVASITGSGGSTYYADSVKGRFTISRGNAKNTVYVQMNSLKPEDTAVYYCAAQCYWTYWPYLLRLYDYWGQGTQVTVSS”, the entry is “low polyreactivity”; as for “QVQLVESGGGLVQAGGSLRLSCAASGGTFSQYAMGWYRQAPGKERELVARISRRGGSTSYADSVKGRFTISRDNAKNTVYLQMNSLKPEDTAVYYCAKDAPSVYPGRFGNTGGYAYDYWGQGTQVTVSS”, “high polyreactivity”; as for “QVQLVESGGGLVQAGGSLRLSCAASGGTFSRNVMGCYRPAPGKERELVSAISRRGSSTYYADSVKGRFTISRDNAKNTVFLQMNSLKPEDTAVYYCARDQFTGADEAGDDYWGQGTQVTVSS”, “high polyreactivity”.
Regarding “QVQLVESGGGLVQAGGSLRLSCAASGGTFSSYAMGWYRPAPGKERELVADITRRGGSTYYADSVKGRFTISRDNAKNTVYLQMNSLKPEDTAVYYCAKDYFRRGLWGFSIYGYWGQGTQVTVSS”, the “polyreactivity (PSR sort gate)” value is on record as “high polyreactivity”.
The result for “QVQLVESGGGLVQAGGSLRLSCAASGGTFSVYAMGWYRQAPGKEREFVASITYGGGITYYADSVKGRFTISRDNAKNTVYLQMNSLKPEDTAVYYCAVDRRVLWYDMDYWGQGTQVTVSS” reads “high polyreactivity”.
The result for “QVQLVESGGGLVQAGGSLRLSCAASGGTFSYNTMGWYRQAPGKERELVAVITFSGGSTYYADSVKGRFTISRDNAKNTVYLQMNSLKPEDTAVYYCNARSYPRWLRYDYWGQGTQVTVSS” reads “low polyreactivity”; that for “QVQLVESGGGLVQAGGSLRLSCAASGGTFSYYAMGWYRQAPGKERELVAAITYSGDRTYYADSVKGRFTISRDNAKNTVYLQMNSLKPEDTAVYYCNAVRGSWYGYYYWGQGTQVTVSS”, “high polyreactivity”.
For “QVQLVESGGGLVQAGGSLRLSCAASGGTFVSYAMGWYRQAPGKERELVVAITYSGGSTYYADSVKGRFTISRDNAKNTVYLQMNRLKPEDTAVYYCAAPKFSYFSYSPRGKFKYEYWGQGTQVTVSS”, the “polyreactivity (PSR sort gate)” value was “low polyreactivity”.
On to “QVQLVESGGGLVQAGGSLRLSCAASGGTFVTNAMGWYRQAPGKERELVAAISYDGGITYYADSVKGRFTISRDNAKNTVYLQMNSLKPEDTAVYYCAAYRRYRNWFNYWGQGTQVTVSS”, for which the “polyreactivity (PSR sort gate)” value is “high polyreactivity”.
The result for “QVQLVESGGGLVQAGGSLRLSCAASGGTFVTYTMAWYRQAPGKEREFVAAISRSGGSTYYADSVKGRFTISRDNAKNTVYLQMNSLKPEDTAVYYCATRGRYYGPGYDYWGQGTQVTVSS” reads “high polyreactivity”; that for “QVQLVESGGGLVQAGGSLRLSCAASGGTFWKNAMGWYRQAPGKERELVAAIRSSSGNTYYADSVKGRFTISRDNAKNTVYLQMNSLKPEDTAVYSCARRYYDYGYDYYWGQGTQVTVSS”, “high polyreactivity”.
“QVQLVESGGGLVQAGGSLRLSCAASGGTFWLYTMGWYRQAPGKERELVAAITKSGGSTYYADSVKGRFTISRDNAKNTVYLQMNSLKPEDTAVYYCAARYSVYRDGYYWGQGTQVTVSS”: the “polyreactivity (PSR sort gate)” value is reported as “high polyreactivity”.
For the sequence “QVQLVESGGGLVQAGGSLRLSCAASGGTFWYYAMGWDRQAPGKERELVAAINWSGDSTYADSVKGRFTISRDNAKNTVYLQMNSLKPEDTAVYYCNADVWYYRMDYWGQGTQVTVSS”, the “polyreactivity (PSR sort gate)” value is “low polyreactivity”.
“QVQLVESGGGLVQAGGSLRLSCAASGGTFWYYAMGWYRQAPGKERELVASISRGGSTNYADSVKGRFTISRDNAKNTVYLQMNSLKPEDTAVYYCNAGLRVGPRRYVDYEYDYWGQGTQVTVSS”: the “polyreactivity (PSR sort gate)” value is on record as “low polyreactivity”.
In the case of “QVQLVESGGGLVQAGGSLRLSCAASGGTFYANAMGWSRQAPGKEREFVASISRSVGSTYYADSVKGRFTISRDNAKNTVYLQMNSLKPEDTAVYYCAARRYSRPRYTYYSWGQGTQVTVSS”, the “polyreactivity (PSR sort gate)” value is “high polyreactivity”.
As for “QVQLVESGGGLVQAGGSLRLSCAASGGTFYAYAMGWYRQAPGKERELVAAISRSGSTYYADSVKGRFTISRDNAKNTVYLQMNSLKPEDTAVYYCAARRARRDPVGYVYAKYGYWGQGTQVTVSS”, the entry is “high polyreactivity”.
For “QVQLVESGGGLVQAGGSLRLSCAASGGTFYAYAMGWYRQAPGKERELVAAITNSGGSTYYADSVKGRFTISRDNAKNTVYLQMNSLKPEDTAVYYCARRRSYRDNYWGQGTQVTVSS”, the “polyreactivity (PSR sort gate)” value is on record as “high polyreactivity”.
For “QVQLVESGGGLVQAGGSLRLSCAASGGTFYNYAMGWYRQAPGKERELVAAITYSGGITYYADSVKGRFTISRDNAKNTVYLQMNSLKPEDTAVYYCNTDGINSSVVVVDDYWMDYWGQGTQVTVSS”, the “polyreactivity (PSR sort gate)” value is recorded as “low polyreactivity”.
In the case of “QVQLVESGGGLVQAGGSLRLSCAASGGTFYTNVMGGYTQAPGKERELVAAITRSGGSTHYADSVKGRFTISRDNAKNTFYLQMNSLKPEDTEVYYCALGSPYYDGMDYWGQGTQVTVSS”, the “polyreactivity (PSR sort gate)” value is “low polyreactivity”.

The record behind these values is the nanobody polyreactivity screen of Harvey et al. (2022).
